Assay results as given in article PMC2435421.

Target: H-2D^b on RMA-S cells (mouse (endogenous in RMA-S))
Experiment: flow cytometry on cells

Substance: gp33-wt, LCMV wild-type peptide antigen (gp33 residues 33-41)
- half-life of the peptide-MHC complex (Peptide stability): > 1 h
